For this experiment, the system named is HeLa cells. The experiment is described as follows: Relative fluorescence intensity of EmGFP having degron (DD tag and mutants) added, expressed from SeV in HeLa cells. It is filed as cell-based. The following applies: for Relative fluorescence intensity of EmGFP having degron added thereto, Shield1: 1 μM of Shield-1; for Relative fluorescence intensity of EmGFP having degron added thereto, Shield1 / Relative fluorescence intensity of EmGFP having degron added thereto, dTAG-13 / Relative fluorescence intensity of EmGFP having degron added thereto, (—): 3 days after infection, MOI=10; for Relative fluorescence intensity of EmGFP having degron added thereto, dTAG-13: 5 μM of dTAG-13; for Relative fluorescence intensity of EmGFP having degron added thereto, (—): no Shield-1 or dTAG-13; for Shield1/(—) / Shield1/dTAG-13: ratio of relative fluorescence intensities. The source says: The addition of a proteolytic tag (degron) to a P protein can facilitate the elimination of a SeV. A DD tag is a type of proteolytic tag (see, for example, US 2009/0215169 A). The DD tag (see SEQ ID NO: 18) is a protein of 107 amino acids in length, obtained by introducing F36V and L106P into FKBP12. Adding a low molecular weight compound, Shield-1 provides stabilization, and adding dTAG-13 also promotes degradation of the protein fused with the tag. In the present Example, a DD mutant (DDm; see SEQ ID NO: 19) having 11 mutations (4I, 18K, 36L, 501, 57K, 59F, 63A, 68L, 90V, 981, and 105R) in a DD tag was constructed. In the present Example, in order to investigate the proteolysis-promoting effect of the DDm, the DD tag and its mutants (including the DDm) were added to EmGFP at its C-terminal and loaded at the + position of the SeV vector (having the above mutation described in WO 2003/025570). HeLa cells were infected with the resulting SeV (MOI=10). On the day after infection, 1 μM of Shield-1 or 5 μM of dTAG-13 was added thereto, and the fluorescence from the cell was observed 3 days after infection. When a DDrs tag having the amino acid sequence set forth in SEQ ID NO: 28 was constructed and added to EmGFP at its C-terminal, the effect of stabilizing EmGFP by Sheild-1 was not obtained and the fluorescence intensity was only about 20% of that of a DD-tagged EmGFP (FIG. 8).

B1: DDm (protein)
chain: GVQIETISPGDGRTFPKKGQTCVVHYTGMLEDGKKLDSSRDRNKPFKFMIGKQEVIKGFEEGAAQMSLGQRAKLTISPDYAYGATGHPGVIPPHATLIFDVELLRPE
Take B1: for the setting “37° C.”, the “Relative fluorescence intensity of EmGFP having degron added thereto, Shield1” value was determined as 140.4%; the “Relative fluorescence intensity of EmGFP having degron added thereto, dTAG-13” value was 0.478%; the “Relative fluorescence intensity of EmGFP having degron added thereto, (—)” value is recorded as 15.0%; the “Shield1/(—)” value is 9.39. Also, for the setting “37° C.”, the Shield1/dTAG-13 came to 293.9. For the same molecule, where the note is “38.5° C.”, the “Relative fluorescence intensity of EmGFP having degron added thereto, Shield1” value is 153%; the “Relative fluorescence intensity of EmGFP having degron added thereto, dTAG-13” value is on record as 0.05%; the “Relative fluorescence intensity of EmGFP having degron added thereto, (—)” value was 2.5%; the “Shield1/(—)” value stood at 61.47. Besides, under “38.5° C.”, the Shield1/dTAG-13 amounted to 3181.7. Further, the “ratio of Shield1/dTAG-13 (in words)” value (Tables 6 and 7, 37° C. and 38.5° C.) is “significantly improved”.

Values taken from US20250333760A1, “TEMPERATURE-SENSITIVE NEGATIVE-STRAND RNA VIRUS OR VIRUS VECTOR AND RNA GENOME THEREOF” (REPLI-TECH CO., LTD., priority 2021, published 2025).
